In the experiment the target is in vitro assembled HIV-1 CA–NC complexes bearing the capsid change N74D (HIV-1). The experiment can be described thus: co-sedimentation.

The values below come from PMC3860269.

Substance “GFP-Nup98 (from UniProt P52948 1-880) (natural protein)” registered a fold decrease of binding against wild type CA–NC complexes of 2 fold.
